IntAct's records for PubMed 25416956

B1: Keratin, type II cytoskeletal 2 epidermal (Homo sapiens), P35908 (parent)
chain: MSCQISCKSRGRGGGGGGFRGFSSGSAVVSGGSRRSTSSFSCLSRHGGGGGGFGGGGFGSRSLVGLGGTKSISISVAGGGGGFGAAGGFGGRGGGFGGGSSFGGGSGFSGGGFGGGGFGGGRFGGFGGPGGVGGLGGPGGFGPGGYPGGIHEVSVNQSLLQPLNVKVDPEIQNVKAQEREQIKTLNNKFASFIDKVRFLEQQNQVLQTKWELLQQMNVGTRPINLEPIFQGYIDSLKRYLDGLTAERTSQNSELNNMQDLVEDYKKKYEDEINKRTAAENDFVTLKKDVDNAYMIKVELQSKVDLLNQEIEFLKVLYDAEISQIHQSVTDTNVILSMDNSRNLDLDSIIAEVKAQYEEIAQRSKEEAEALYHSKYEELQVTVGRHGDSLKEIKIEISELNRVIQRLQGEIAHVKKQCKNVQDAIADAEQRGEHALKDARNKLNDLEEALQQAKEDLARLLRDYQELMNVKLALDVEIATYRKLLEGEECRMSGDLSSNVTVSVTSSTISSNVASKAAFGGSGGRGSSSGGGYSSGSSSYGSGGRQSGSRGGSGGGGSISGGGYGSGGGSGGRYGSGGGSKGGSISGGGYGSGGGKHSSGGGSRGGSSSGGGYGSGGGGSSSVKGSSGEAFGSSVTFSFR
partner: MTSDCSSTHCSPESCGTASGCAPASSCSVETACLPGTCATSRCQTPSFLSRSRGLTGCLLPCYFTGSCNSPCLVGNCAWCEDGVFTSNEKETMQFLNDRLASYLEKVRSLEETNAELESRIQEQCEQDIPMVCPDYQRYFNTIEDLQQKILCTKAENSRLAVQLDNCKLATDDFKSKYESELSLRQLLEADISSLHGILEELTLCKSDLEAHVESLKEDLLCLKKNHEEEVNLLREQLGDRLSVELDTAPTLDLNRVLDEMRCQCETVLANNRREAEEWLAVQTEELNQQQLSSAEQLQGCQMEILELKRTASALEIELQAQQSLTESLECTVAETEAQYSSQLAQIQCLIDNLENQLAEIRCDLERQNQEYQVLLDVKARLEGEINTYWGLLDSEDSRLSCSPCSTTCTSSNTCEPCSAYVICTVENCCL
B2: DNA ligase 4 (Homo sapiens), P49917 (parent)
chain: MAASQTSQTVASHVPFADLCSTLERIQKSKGRAEKIRHFREFLDSWRKFHDALHKNHKDVTDSFYPAMRLILPQLERERMAYGIKETMLAKLYIELLNLPRDGKDALKLLNYRTPTGTHGDAGDFAMIAYFVLKPRCLQKGSLTIQQVNDLLDSIASNNSAKRKDLIKKSLLQLITQSSALEQKWLIRMIIKDLKLGVSQQTIFSVFHNDAAELHNVTTDLEKVCRQLHDPSVGLSDISITLFSAFKPMLAAIADIEHIEKDMKHQSFYIETKLDGERMQMHKDGDVYKYFSRNGYNYTDQFGASPTEGSLTPFIHNAFKADIQICILDGEMMAYNPNTQTFMQKGTKFDIKRMVEDSDLQTCYCVFDVLMVNNKKLGHETLRKRYEILSSIFTPIPGRIEIVQKTQAHTKNEVIDALNEAIDKREEGIMVKQPLSIYKPDKRGEGWLKIKPEYVSGLMDELDILIVGGYWGKGSRGGMMSHFLCAVAEKPPPGEKPSVFHTLSRVGSGCTMKELYDLGLKLAKYWKPFHRKAPPSSILCGTEKPEVYIEPCNSVIVQIKAAEIVPSDMYKTGCTLRFPRIEKIRDDKEWHECMTLDDLEQLRGKASGKLASKHLYIGGDDEPQEKKRKAAPKMKKVIGIIEHLKAPNLTNVNKISNIFEDVEFCVMSGTDSQPKPDLENRIAEFGGYIVQNPGPDTYCVIAGSENIRVKNIILSNKHDVVKPAWLLECFKTKSFVPWQPRFMIHMCPSTKEHFAREYDCYGDSYFIDTDLNQLKEVFSGIKNSNEQTPEEMASLIADLEYRYSWDCSPLSMFRRHTVYLDSYAVINDLSTKNEGTRLAIKALELRFHGAKVVSCLAEGVSHVIIGEDHSRVADFKAFRRTFKRKFKILKESWVTDSIDKCELQEENQYLI
B3: Zinc finger protein 41 (Homo sapiens), P51814 (parent)
chain: MAANGDSPPWSPALAAEGRGSSCEVRRERTPEARIHSVKRYPDLSPGPKGRSSADHAALNSIVSLQASVSFEDVTVDFSKEEWQHLDPAQRRLYWDVTLENYSHLLSVGYQIPKSEAAFKLEQGEGPWMLEGEAPHQSCSGEAIGKMQQQGIPGGIFFHCERFDQPIGEDSLCSILEELWQDNDQLEQRQENQNNLLSHVKVLIKERGYEHKNIEKIIHVTTKLVPSIKRLHNCDTILKHTLNSHNHNRNSATKNLGKIFGNGNNFPHSPSSTKNENAKTGANSCEHDHYEKHLSHKQAPTHHQKIHPEEKLYVCTECVMGFTQKSHLFEHQRIHAGEKSRECDKSNKVFPQKPQVDVHPSVYTGEKPYLCTQCGKVFTLKSNLITHQKIHTGQKPYKCSECGKAFFQRSDLFRHLRIHTGEKPYECSECGKGFSQNSDLSIHQKTHTGEKHYECNECGKAFTRKSALRMHQRIHTGEKPYVCADCGKAFIQKSHFNTHQRIHTGEKPYECSDCGKSFTKKSQLHVHQRIHTGEKPYICTECGKVFTHRTNLTTHQKTHTGEKPYMCAECGKAFTDQSNLIKHQKTHTGEKPYKCNGCGKAFIWKSRLKIHQKSHIGERHYECKDCGKAFIQKSTLSVHQRIHTGEKPYVCPECGKAFIQKSHFIAHHRIHTGEKPYECSDCGKCFTKKSQLRVHQKIHTGEKPNICAECGKAFTDRSNLITHQKIHTREKPYECGDCGKTFTWKSRLNIHQKSHTGERHYECSKCGKAFIQKATLSMHQIIHTGKKPYACTECQKAFTDRSNLIKHQKMHSGEKRYKASD
B4: Beta-crystallin A4 (Homo sapiens), P53673 (parent)
chain: MTLQCTKSAGPWKMVVWDEDGFQGRRHEFTAECPSVLELGFETVRSLKVLSGAWVGFEHAGFQGQQYILERGEYPSWDAWGGNTAYPAERLTSFRPAACANHRDSRLTIFEQENFLGKKGELSDDYPSLQAMGWEGNEVGSFHVHSGAWVCSQFPGYRGFQYVLECDHHSGDYKHFREWGSHAPTFQVQSIRRIQQ
partner: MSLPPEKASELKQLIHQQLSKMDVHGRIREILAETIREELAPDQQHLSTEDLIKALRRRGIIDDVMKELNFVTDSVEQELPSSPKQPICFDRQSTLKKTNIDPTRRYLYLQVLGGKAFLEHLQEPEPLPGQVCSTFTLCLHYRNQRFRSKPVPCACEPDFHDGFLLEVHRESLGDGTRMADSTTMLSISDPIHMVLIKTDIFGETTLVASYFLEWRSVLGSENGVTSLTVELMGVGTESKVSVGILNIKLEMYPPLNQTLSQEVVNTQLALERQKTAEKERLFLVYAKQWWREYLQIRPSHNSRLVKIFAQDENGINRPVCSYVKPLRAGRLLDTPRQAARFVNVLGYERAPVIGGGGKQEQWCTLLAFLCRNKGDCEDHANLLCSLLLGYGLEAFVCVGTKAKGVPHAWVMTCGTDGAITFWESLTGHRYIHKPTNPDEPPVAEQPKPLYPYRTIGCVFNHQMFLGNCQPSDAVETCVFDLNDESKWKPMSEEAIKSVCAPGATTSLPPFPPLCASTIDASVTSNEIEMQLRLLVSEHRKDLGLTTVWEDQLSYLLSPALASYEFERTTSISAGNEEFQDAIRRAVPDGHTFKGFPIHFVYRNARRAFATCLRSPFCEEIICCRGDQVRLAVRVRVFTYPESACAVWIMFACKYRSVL
B5: Serotonin N-acetyltransferase (Homo sapiens), Q16613 (parent)
chain: MSTQSTHPLKPEAPRLPPGIPESPSCQRRHTLPASEFRCLTPEDAVSAFEIEREAFISVLGVCPLYLDEIRHFLTLCPELSLGWFEEGCLVAFIIGSLWDKERLMQESLTLHRSGGHIAHLHVLAVHRAFRQQGRGPILLWRYLHHLGSQPAVRRAALMCEDALVPFYERFSFHAVGPCAITVGSLTFMELHCSLRGHPFLRRNSGC
B6: EF-hand domain-containing protein 1 (Homo sapiens), Q5JVL4 (parent)
chain: MVSNPVHGLPFLPGTSFKDSTKTAFHRSQTLSYRNGYAIVRRPTVGIGGDRLQFNQLSQAELDELASKAPVLTYGQPKQAPPADFIPAHVAFDKKVLKFDAYFQEDVPMSTEEQYRIRQVNIYYYLEDDSMSVIEPVVENSGILQGKLIKRQRLAKNDRGDHYHWKDLNRGINITIYGKTFRVVDCDQFTQVFLESQGIELNPPEKMALDPYTELRKQPLRKYVTPSDFDQLKQFLTFDKQVLRFYAIWDDTDSMYGECRTYIIHYYLMDDTVEIREVHERNDGRDPFPLLMNRQRVPKVLVENAKNFPQCVLEISDQEVLEWYTAKDFIVGKSLTILGRTFFIYDCDPFTRRYYKEKFGITDLPRIDVSKREPPPVKQELPPYNGFGLVEDSAQNCFALIPKAPKKDVIKMLVNDNKVLRYLAVLESPIPEDKDRRFVFSYFLATDMISIFEPPVRNSGIIGGKYLGRTKVVKPYSTVDNPVYYGPSDFFIGAVIEVFGHRFIILDTDEYVLKYMESNAAQYSPEALASIQNHVRKREAPAPEAESKQTEKDPGVQELEALIDTIQKQLKDHSCKDNIREAFQIYDKEASGYVDRDMFFKICESLNVPVDDSLVKELIRMCSHGEGKINYYNFVRAFSN

Variants of: B1
Settings: with KRT40, Q6A162

Variant | effect of a mutation on the interaction
L484P | disrupting interaction

Variants of: B2
Settings: with xrcc4_human XRCC4, Q13426
xrcc4_human XRCC4, Q13426, sequence (Q13426 whole entry): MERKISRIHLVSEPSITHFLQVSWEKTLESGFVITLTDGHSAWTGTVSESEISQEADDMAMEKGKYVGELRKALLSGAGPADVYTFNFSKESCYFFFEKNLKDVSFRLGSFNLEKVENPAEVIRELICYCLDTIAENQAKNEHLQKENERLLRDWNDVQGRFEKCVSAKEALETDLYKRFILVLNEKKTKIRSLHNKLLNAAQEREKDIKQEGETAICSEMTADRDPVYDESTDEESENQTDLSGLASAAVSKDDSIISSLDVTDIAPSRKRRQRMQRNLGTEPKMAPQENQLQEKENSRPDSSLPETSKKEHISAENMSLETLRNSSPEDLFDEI

Variant | effect of a mutation on the interaction
A3V | disrupting interaction

Variants of: B3
Settings: with fam9b_human FAM9B

Variant | effect of a mutation on the interaction
Q111L | disrupting interaction

Variants of: B4
Settings: with cep76_human CEP76, Q8TAP6

Variant | effect of a mutation on the interaction
MTLQCTKSAGPWKMVVWDEDGFQGRRHEFTAECPSMLELGFETVRSLKVLSGAWVGFEHAGFQGQQYILERGEYPSWDAWGGNTAYPAERLTSFRPAACANHRDSRLTIFEQENFLGKKGELSDDYPSLQAMGWEGNEVGSFHVHSGAWVCSQFPGYRGFQYVLECDHHSGDYKHFREWGSHAPTFQVQSIRRIQQ | disrupting interaction

Variants of: B4
Settings: with cep76_human CEP76, Q8TAP6
Remark: another data set of the same source

Variant | effect of a mutation on the interaction
MTLQCTKSAGPWKMVVWDEDGFQGRRHEFTAECPSVLELGFETVRSLKVLSGAWVGFEHAGFQGQQYIPERGEYPSWDAWGGNTAYPAERLTSFRPAACANHRDSRLTIFEQENFLGKKGELSDDYPSLQAMGWEGNEVGSFHVHSGAWVCSQFPGYRGFQYVLECDHHSGDYKHFREWGSHAPTFQVQSIRRIQQ | disrupting interaction

Variants of: B4
Settings: with cep76_human CEP76, Q8TAP6
Remark: another data set of the same source

Variant | effect of a mutation on the interaction
MTLQCTKSAGPWKMVVWDEDGFQGRRHEFTAECPSVLELGFETVRSLKVLSGAWVGFEHAGFQGQQYILERGEYPSWDAWGGNTAYPAERLTSSRPAACANHRDSRLTIFEQENFLGKKGELSDDYPSLQAMGWEGNEVGSFHVHSGAWVCSQFPGYRGFQYVLECDHHSGDYKHFREWGSHAPTFQVQSIRRIQQ | disrupting interaction

Variants of: B5
Settings: with bhe40_human BHLHE40, O14503
bhe40_human BHLHE40, O14503, sequence (O14503 whole entry): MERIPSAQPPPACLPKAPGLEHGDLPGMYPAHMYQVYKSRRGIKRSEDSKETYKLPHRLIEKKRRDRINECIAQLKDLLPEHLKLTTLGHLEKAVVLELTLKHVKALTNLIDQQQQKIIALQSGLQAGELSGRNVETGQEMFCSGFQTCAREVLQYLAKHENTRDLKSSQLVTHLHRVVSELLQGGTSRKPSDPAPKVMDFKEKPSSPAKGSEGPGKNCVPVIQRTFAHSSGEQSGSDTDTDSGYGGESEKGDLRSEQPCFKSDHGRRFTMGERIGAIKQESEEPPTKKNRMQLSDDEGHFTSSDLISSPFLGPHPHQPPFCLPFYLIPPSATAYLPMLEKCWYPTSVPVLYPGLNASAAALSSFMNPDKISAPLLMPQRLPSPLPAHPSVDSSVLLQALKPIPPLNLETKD

Variant | effect of a mutation on the interaction
A129T | disrupting interaction

Variants of: B6
Settings: with itf2_human TCF4, P15884
itf2_human TCF4, P15884, sequence (P15884 whole entry): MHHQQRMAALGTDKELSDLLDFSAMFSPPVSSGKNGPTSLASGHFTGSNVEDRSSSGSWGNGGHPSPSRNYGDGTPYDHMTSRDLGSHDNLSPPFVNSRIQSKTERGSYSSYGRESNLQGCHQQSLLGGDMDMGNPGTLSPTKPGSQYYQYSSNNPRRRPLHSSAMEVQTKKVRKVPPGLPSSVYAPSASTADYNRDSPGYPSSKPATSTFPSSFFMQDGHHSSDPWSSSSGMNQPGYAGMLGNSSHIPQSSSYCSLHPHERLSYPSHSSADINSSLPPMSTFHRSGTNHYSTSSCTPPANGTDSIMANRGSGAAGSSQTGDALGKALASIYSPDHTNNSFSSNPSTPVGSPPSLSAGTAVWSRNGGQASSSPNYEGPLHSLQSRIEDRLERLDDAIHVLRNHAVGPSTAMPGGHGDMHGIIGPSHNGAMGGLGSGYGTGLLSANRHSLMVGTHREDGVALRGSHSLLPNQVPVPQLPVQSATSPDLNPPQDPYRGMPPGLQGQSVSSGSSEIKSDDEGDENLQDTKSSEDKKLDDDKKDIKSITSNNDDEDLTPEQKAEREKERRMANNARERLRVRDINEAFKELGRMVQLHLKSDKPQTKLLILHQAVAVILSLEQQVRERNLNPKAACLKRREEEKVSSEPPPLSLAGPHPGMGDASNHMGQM

Variant | effect of a mutation on the interaction
R221H | disrupting interaction

Variants of: B6
Settings: with ikzf3_human IKZF3, Q9UKT9
ikzf3_human IKZF3, Q9UKT9, sequence (Q9UKT9 whole entry): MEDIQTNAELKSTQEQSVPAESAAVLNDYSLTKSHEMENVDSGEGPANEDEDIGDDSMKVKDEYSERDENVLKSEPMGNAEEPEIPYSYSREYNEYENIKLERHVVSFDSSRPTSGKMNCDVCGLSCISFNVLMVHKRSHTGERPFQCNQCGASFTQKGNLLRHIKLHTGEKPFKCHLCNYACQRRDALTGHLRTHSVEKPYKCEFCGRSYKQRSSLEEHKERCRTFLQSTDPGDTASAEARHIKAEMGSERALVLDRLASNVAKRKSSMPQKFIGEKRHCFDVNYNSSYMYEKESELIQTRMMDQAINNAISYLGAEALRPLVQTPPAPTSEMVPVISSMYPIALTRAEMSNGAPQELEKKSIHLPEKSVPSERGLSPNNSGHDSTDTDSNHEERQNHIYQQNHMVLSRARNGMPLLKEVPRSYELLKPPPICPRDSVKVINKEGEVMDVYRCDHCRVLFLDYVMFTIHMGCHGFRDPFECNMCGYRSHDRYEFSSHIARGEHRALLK

Variant | effect of a mutation on the interaction
R221H | disrupting interaction

Variants of: B6
Settings: with itf2_human TCF4, P15884
Remark: another data set of the same source

Variant | effect of a mutation on the interaction
A394S | disrupting interaction

Variants of: B6
Settings: with ikzf3_human IKZF3, Q9UKT9
Remark: another data set of the same source

Variant | effect of a mutation on the interaction
A394S | disrupting interaction

Variants of: B6
Settings: with itf2_human TCF4, P15884
Remark: another data set of the same source

Variant | effect of a mutation on the interaction
T508R | disrupting interaction
